Reference: paper PMC8590011, “WRN helicase safeguards deprotected replication forks in BRCA2-mutated cancer cells”

Biological target: FLAG-WRN (wild type) (UniProt Q14191 1-1432)
Test: EMSA; 2 mM ATPgS, 5 mM MgCl2; affinity similar to the K577M/E84A mutant; Kd is only in Supp Fig 1e, value not in material; 35 mM Tris-HCl pH 7.5, 20 mM KCl, 5 mM MgCl2, 0.1 mg/ml BSA, 2 mM DTT, 5% glycerol, 2 mM ATPgS, 2 nM DNA, 15 min at RT; 5% 1x TBE native PAGE at 4 C
Details: protein: recombinant; tags: N-terminal FLAG (6xHis removed with TEV); label: 5' 32P on oligo B (as described for the CF preparation); four-strand regressed fork: AB partial duplex annealed to CD partial duplex

Sequence of FLAG-WRN (wild type) (Q14191 whole entry): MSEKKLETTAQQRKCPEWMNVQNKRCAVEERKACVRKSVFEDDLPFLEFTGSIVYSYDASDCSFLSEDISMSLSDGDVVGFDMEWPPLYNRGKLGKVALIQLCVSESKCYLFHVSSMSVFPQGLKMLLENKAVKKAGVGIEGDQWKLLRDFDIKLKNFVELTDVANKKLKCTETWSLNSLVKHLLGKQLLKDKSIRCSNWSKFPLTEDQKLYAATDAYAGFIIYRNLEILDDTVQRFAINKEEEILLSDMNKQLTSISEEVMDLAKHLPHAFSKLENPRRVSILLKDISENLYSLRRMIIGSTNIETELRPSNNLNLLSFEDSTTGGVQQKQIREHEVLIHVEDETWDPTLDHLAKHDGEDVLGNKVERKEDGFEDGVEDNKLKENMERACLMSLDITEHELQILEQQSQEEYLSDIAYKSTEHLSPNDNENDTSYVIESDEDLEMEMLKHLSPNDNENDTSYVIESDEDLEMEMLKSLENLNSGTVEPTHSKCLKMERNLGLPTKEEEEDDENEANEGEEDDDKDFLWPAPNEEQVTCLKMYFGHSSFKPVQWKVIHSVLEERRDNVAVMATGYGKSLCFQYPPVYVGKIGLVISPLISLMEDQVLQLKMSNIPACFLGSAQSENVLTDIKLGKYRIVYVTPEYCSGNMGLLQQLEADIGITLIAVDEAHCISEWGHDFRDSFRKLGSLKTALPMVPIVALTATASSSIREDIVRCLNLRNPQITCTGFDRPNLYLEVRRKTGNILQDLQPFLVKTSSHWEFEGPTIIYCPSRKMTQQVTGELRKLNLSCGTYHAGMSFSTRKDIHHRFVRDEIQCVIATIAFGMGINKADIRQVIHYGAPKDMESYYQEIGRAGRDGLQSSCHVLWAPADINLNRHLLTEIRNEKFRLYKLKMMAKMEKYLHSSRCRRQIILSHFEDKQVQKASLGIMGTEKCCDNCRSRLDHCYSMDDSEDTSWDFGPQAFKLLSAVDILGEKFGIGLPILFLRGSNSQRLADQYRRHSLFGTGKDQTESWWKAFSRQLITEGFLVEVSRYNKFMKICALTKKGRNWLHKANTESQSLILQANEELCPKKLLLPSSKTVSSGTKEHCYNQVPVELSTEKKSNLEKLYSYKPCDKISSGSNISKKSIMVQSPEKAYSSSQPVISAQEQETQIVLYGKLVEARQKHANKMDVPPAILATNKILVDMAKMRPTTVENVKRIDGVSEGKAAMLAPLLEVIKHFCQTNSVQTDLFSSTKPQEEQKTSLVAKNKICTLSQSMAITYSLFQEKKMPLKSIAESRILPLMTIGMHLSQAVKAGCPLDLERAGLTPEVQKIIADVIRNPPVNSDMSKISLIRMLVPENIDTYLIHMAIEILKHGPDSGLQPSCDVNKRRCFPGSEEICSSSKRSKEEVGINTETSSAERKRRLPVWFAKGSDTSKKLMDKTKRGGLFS

B1: chicken-foot (CF) reversed fork substrate, oligos A+B+C+D (structured_DNA)
DNA 1: CTTTAGCTGCATATTTACAACATGTTGACCTTCAGTACAATCTGCTCTGATGCCGCATAGTGTCATGCCAGAGCTTTGTAC
DNA 2: CGGGTGTCGGGGCGCATGACACTATGCGGCATCAGAGCAGATTGTACTGAAGGTCAACATGTTGTAAATATGCAGCTAAAG
DNA 3: GTACAAAGCTCTGGCATGATACTATGCGGCATCAGAGCAGATT
DNA 4: TCAGTACAATCTGCTCTGATGCCGCATAGTATCATGCGCCCCGACACCCG
modifications: iMe-isodC at position 38 of oligo A (written as C)
binding result: binds
